Experiment [1] deals with T1, HCV NS3 (genotype 1a) peptide on HLA-A*02:01 (human).
T1 peptide: CINGVCWTV
Description: T cell clone or line.

Experiment [2] concerns the target T2, HCV NS3 1073-1081, alanine analogue 1074-Ala (position 2) peptide on HLA-A*02:01 (human).
T2 peptide: CANGVCWTV
Description: T cell clone or line.

The target of experiment [3] is T3, HCV NS3 1073 (genotype 5) peptide on HLA-A*02:01 (human).
T3 peptide: CINGVMWTV
Put plainly: cytokine release.

Experiment [4] deals with T4, HCV NS3 1073 (genotype 4) peptide on HLA-A*02:01 (human).
T4 peptide: AVNGVMWTV
Put plainly: cytokine release.

The target in experiment [5] is T5, HCV NS3 peptide on HLA-A*02:01 (human).
T5 peptide: KLVALGINAV
Description: cytokine release.

Experiment [6] deals with T6, HCV NS5 peptide on HLA-A*02:01 (human).
T6 peptide: VLTDFKTWL
Description: cytokine release.

Experiment [7] addresses T7, HCV NS3 1073 (genotype 3) peptide on HLA-A*02:01 (human).
T7 peptide: TIGGVMWTV
Put plainly: cytokine release.

The target in experiment [8] is T8, Flu neuraminidase (Flu-NA231) peptide on HLA-A*02:01 (human).
T8 peptide: CVNGSCFTV
Put plainly: cytokine release.

In experiment [9] the target is T9, HCV NS3 1073 (genotype 6) peptide on HLA-A*02:01 (human).
T9 peptide: AINGVMWTV
Description: cytokine release.

The target of experiment [10] is T10, HCV NS3 1073-1081, alanine analogue 1080-Ala (position 8) peptide on HLA-A*02:01 (human).
T10 peptide: CINGVCWAV
Put plainly: cytokine release.

Experiment [11] concerns the target T11, HCV NS3 1073 (genotype 2) peptide on HLA-A*02:01 (human).
T11 peptide: TISGVLWTV
Put plainly: cytokine release.

In experiment [12] the target is T12, HCV NS3 1073-1081, alanine analogue 1081-Ala (position 9) peptide on HLA-A*02:01 (human).
T12 peptide: CINGVCWTA
Put plainly: cytokine release.

Experiment [13] addresses T13, HCV NS3 1073-1081, alanine analogue 1073-Ala (position 1) peptide on HLA-A*02:01 (human).
T13 peptide: AINGVCWTV
Description: cytokine release.

In experiment [14] the target is T14, HCMV pp65 (pp65 495) peptide on HLA-A*02:01 (human).
T14 peptide: NLVPMVATV
Put plainly: cytokine release.

Experiment [15] has as its target T15, HCV NS3 (genotype 1b) peptide on HLA-A*02:01 (human).
T15 peptide: CVNGVCWTV
Description: cytokine release.

The target of experiment [16] is T16, HCV NS5 (NS5 2221) peptide on HLA-A*02:01 (human).
T16 peptide: SPDADLIEANL
Description: cytokine release.

Experiment [17] has as its target T17, HCV NS3 1073-1081, alanine analogue 1078-Ala (position 6) peptide on HLA-A*02:01 (human).
T17 peptide: CINGVAWTV
Put plainly: cytokine release.

Experiment [18] deals with T1, HCV NS3 (genotype 1a) peptide on …. Description: multimer staining.
The target in experiment [19] is T18, HCV NS3 (genotype 1a) peptide on HLA-A*02:01 (human/mouse chimera).
T18 peptide: CINGVCWTV
Description: cytokine release.

For experiment [20], the target named is T2, HCV NS3 1073-1081, alanine analogue …. Put plainly: cytokine release.

Some results are limits rather than exact numbers.

B1: I4G7 alpha chain with I4G7 beta chain2 (TCR, V domains shown)
Valpha: AQSVTQPDARVTVSEGASLQLRCKYSYFGTPYLFWYVQYPRQGLQLLLKYYPGDPVVQGVNGFEAEFSKSNSSFHLRKASVHWSDWAVYFCAVSRDTNTGKLTFGDGTVLTVKP
Vbeta: EAAVTQSPRNKVTVTGGNVTLSCRQTNSHNYMYWYRQDTGHGLRLIHYSYGAGNLRIGDVPDGYKATRTTQEDFFLLLELASPSQTSLYFCASSDYRDSGNTLYFGEGSRLIVV
B1: in experiment [1], the “peptide concentration at which reactive” value was < 100 ng/mL. Besides, in experiment [2], the EC50 of peptide was 0.08 µg/mL. Also, the binding result in [3], in experiment [4], in experiment [5], in experiment [6], in experiment [7] and in experiment [8] was “no recognition” each time. Also, the binding result is on record as “no recognition” in experiment [9]; “recognises” in [10]; “no recognition” in experiment [11]; “recognises” in experiment [12]; “recognises” in [13]; “no recognition” in experiment [14]. The binding result in [15] is recorded as “recognises”; in experiment [16], “no recognition”; in experiment [17], “recognises”.

B2: TCR-69 (TCR, V domains shown)
Valpha: LAKTTQPPSMEAYEGQEVNVSCSHTNIATSEYIYWYRQVPHQGPQFIIQGYKDYVVNEVASLFISADRKLSTLSLPWVSLRDAAVYYCIVTDLGITGNTGKLIFGLGTTLQVQP
Vbeta: EAAVTQSPRNKVAVTGGKVTLSCNQTNNHNNMYWYRQDTGHGLRLIHYSYGAGSTEKGDIPDGYKASRPSQENFSLILELATPSQTSVYFCASGDEGYNSPLYFAAGTRLTVT
Regarding B2, in [6], the binding result is listed as “recognises”.

B3: I8A4 (TCR, V domains shown)
Valpha: LAKTTQPPSMEAYEGQEVNVSCSHTNIATSEYIYWYRQVPHQGPQFIIQGYKDYVVNEVASLFISADRKLSTLSLPWVSLRDAAVYYCIVTDMETGGYKVVFGSGTRLLVSP
Vbeta: EAAVTQSPRNKVAVTGGKVTLSCNQTNNHNNMYWYRQDTGHGLRLIHYSYGAGSTEKGDIPDGYKASRPSQENFSLILELATPSQTSVYFCASASTGASSYEQYFGPGTRLTVL
Consider B3, for which the EC50 of peptide in experiment [1] was ≤ 0.4 µg/mL. Also, the binding result in experiment [3], in experiment [4], in [5], in [6], in [7] and in [8] was “no recognition” in each case. For the same molecule, the binding result in experiment [9] was “no recognition”; in experiment [11], “no recognition”; in experiment [13], “recognises”; in experiment [14], “no recognition”; in experiment [15], “recognises”; in experiment [16], “no recognition”.

B4: I8H4 (TCR, V domains shown)
Valpha: AQKVTQTQTSISVVEKTTVTMDCVYETRDSSYFLFWYKQTASGEIVFLIRQDSYKKENATVGHYSLNFQKPKSSIGLIITATQIEDSAVYFCAMREITGNTGKLIFGLGTTLQVQP
Vbeta: EAAVTQSPRNKVTVTGGNVTLSCRQTNSHNYMYWYRQDTGHGLRLIHYSYGAGNLRIGDVPDGYKATRTTQEDFFLLLELASPSQTSLYFCASSDALGGEDAEQFFGPGTRLTVL
With B4, the binding result in experiment [18] is recorded as “recognises”; in [3], “no recognition”; in [4], “no recognition”; in experiment [5], “no recognition”; in experiment [6] it was “no recognition”; in experiment [7], “no recognition”. Besides, the binding result in [19] is “recognises”; in [8], “no recognition”; in [9], “no recognition”; in experiment [10], “recognises”; in [11], “no recognition”; in experiment [20], “recognises”. Besides, the binding result in [12] was “recognises”; in experiment [13], “recognises”; in experiment [14], “no recognition”; in [15], “recognises”; in experiment [16], “no recognition”; in [17] it was “recognises”.

B5: TCR-19 (TCR, V domains shown)
Valpha: GEKVEQHQSTLSVREGDSAVINCTYTDTASSYFPWYKQEAGKSLHFVIDIRSNVDRKQSQRLTVLLDKKAKRFSLHITATQPEDSAIYFCAASLITGNTGKLIFGLGTTLQVQP
Vbeta: GGIITQTPKFLIGQEGQKLTLKCQQNFNHDTMYWYRQDSGKGLRLIYYSITENDLQKGDLSEGYDASREKKSSFSLTVTSAQKNEMAVFLCASSLTANTEVFFGKGTRLTVV
Regarding B5, the binding result in [6] is on record as “recognises”.

B6: I4F8 (TCR, V domains shown)
Valpha: AQSVTQPDARVTVSEGASLQLRCKYSYFGTPYLFWYVQYPRQGLQLLLKYYPGDPVVQGVNGFEAEFSKSNSSFHLRKASVHWSDWAVYFCAVSNMGYKLTFGTGTSLLVDP
Vbeta: DPKIIQKPKYLVAVTGSEKILICEQYLGHNAMYWYRQSAKKPLEFMFSYSYQKLMDNQTASSRFQPQSSKKNHLDLQITALKPDDSATYFCASSQEMGGALEQYFGPGTRLTVL
For B6, the “peptide concentration at which reactive” value in experiment [1] is < 100 ng/mL. Also, the binding result in [3], in [4], in experiment [5], in experiment [6], in [7] and in experiment [8] was “no recognition” each time. The binding result is on record as “no recognition” in experiment [9]; “recognises” in experiment [10]; “no recognition” in experiment [11]; “recognises” in experiment [20]; “recognises” in [12]; “recognises” in experiment [13]. The binding result in [14] is reported as “no recognition”; in experiment [15], “recognises”; in experiment [16] it was “no recognition”; in experiment [17], “recognises”.

B7: I4G7 alpha chain with I4G7 beta chain1 (TCR, V domains shown)
Valpha: AQSVTQPDARVTVSEGASLQLRCKYSYFGTPYRIEFSGREFALLFWYVQYPRQGLQLLLKYYPGDPVVQGVNGFEAEFSKSNSSFHLRKASVHWSDWAVYFCAVSRDTNTGKLTFGDGTVLTVKP
Vbeta: EAAVTQSPRNKVAVTGGKVTLSCNQTNNHNNMGELNLAAANSPLYWYRQDTGHGLRLIHYSYVADSTEKGDIPDGYKASRPSQENFSLILELASLSQTAVYFCASSGGLGGHTLYFGAGTRLSVL
Regarding B7, in experiment [1], the “peptide concentration at which reactive” value is < 100 ng/mL. In [2], the EC50 of peptide is 0.08 µg/mL. For the same molecule, the binding result in experiment [3], in [4], in experiment [5], in [6], in experiment [7] and in [8] was “no recognition” throughout. Besides, the binding result in [9] is on record as “no recognition”; in experiment [10] it was “recognises”; in [11], “no recognition”; in [12], “recognises”; in experiment [13], “recognises”; in [14] it was “no recognition”. The binding result in [15] is “recognises”; in experiment [16], “no recognition”; in [17], “recognises”.

For the origin of these results see patent US20130011375A1 (published 2013).
